Test results: US20250152704A1 (PARAGON THERAPEUTICS, published 2025)
Numbering of substitutions follows the chain as printed. Blank lines part the entries; values can stand above or below the binder they belong to.

Assays:
FcRn-GFP = assay: cell-based or functional assay
[1] = biological target: T1, Recombinant in-house Human FcRn protein (human, UniProt P55899 24-297; P61769 21-119, limits assumed); assay: competitive binding ELISA, pH 6.0, in triplicate; competitor IgG
T1 construct: also called huFCRN; HuFcRn

cynomolgus monkey FcRn [2] = biological target: T2, cynomolgus monkey FcRn (cynomolgus monkey, UniProt Q8SPV9 24-297; Q8SPW0 21-119, limits assumed); assay: SPR, pH 6
T2 construct: also called cynoFcRn

[3] = biological target: T1, Recombinant in-house Human FcRn protein; assay: SPR, pH 6
mouse FcRn [4] = biological target: T3, mouse FcRn (mouse, UniProt Q61559 22-297; P01887 21-119, limits assumed); assay: SPR, pH 6
T3 sequence (looked up) 1: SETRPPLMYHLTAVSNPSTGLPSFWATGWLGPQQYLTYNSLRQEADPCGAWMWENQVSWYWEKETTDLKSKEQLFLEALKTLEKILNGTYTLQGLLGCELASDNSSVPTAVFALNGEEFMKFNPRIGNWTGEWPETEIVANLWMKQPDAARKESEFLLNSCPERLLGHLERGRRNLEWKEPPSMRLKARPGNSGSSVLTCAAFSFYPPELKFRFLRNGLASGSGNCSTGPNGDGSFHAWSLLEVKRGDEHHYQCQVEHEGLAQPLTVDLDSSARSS
T3 sequence (looked up) 2: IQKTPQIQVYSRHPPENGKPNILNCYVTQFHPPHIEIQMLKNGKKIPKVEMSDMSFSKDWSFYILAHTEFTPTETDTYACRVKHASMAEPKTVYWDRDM

rat FcRn [5] = biological target: T4, rat FcRn (rat, UniProt P13599 23-298; P07151 21-119, limits assumed); assay: SPR, pH 6
T4 sequence (looked up) 1: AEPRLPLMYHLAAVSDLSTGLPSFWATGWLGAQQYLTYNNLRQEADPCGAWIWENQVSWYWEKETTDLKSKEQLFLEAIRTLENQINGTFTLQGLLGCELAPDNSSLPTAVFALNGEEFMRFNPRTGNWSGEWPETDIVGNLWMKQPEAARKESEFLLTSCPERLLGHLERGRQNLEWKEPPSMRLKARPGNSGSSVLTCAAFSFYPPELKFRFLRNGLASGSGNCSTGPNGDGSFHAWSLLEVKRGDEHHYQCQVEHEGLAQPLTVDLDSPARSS
T4 sequence (looked up) 2: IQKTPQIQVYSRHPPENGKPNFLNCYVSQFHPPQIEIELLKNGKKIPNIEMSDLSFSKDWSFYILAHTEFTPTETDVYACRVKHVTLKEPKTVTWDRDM

cynomolgus monkey FcRn [6] = biological target: T2, cynomolgus monkey FcRn; assay: SPR, pH 7.4
[7] = biological target: T1, Recombinant in-house Human FcRn protein; assay: SPR, pH 7.4
mouse FcRn [8] = biological target: T3, mouse FcRn; assay: SPR, pH 7.4
rat FcRn [9] = biological target: T4, rat FcRn; assay: SPR, pH 7.4
[10] = biological target: T1, Recombinant in-house Human FcRn protein; assay: competitive binding ELISA, pH 6.0; competitor Efgartigimod (Fc Fragment 1)

Average (n = 3) Residual FcRn (FcRn-GFP): 20
B1: Fc Fusion Molecule 22 (Fc fusion)
chain 1: DKTHTCPPCPAPELLGGPSVFLFPPKPKDTLYITREPEVTCVVVDVSHEDPEVKFNWYVDGVEVHNAKTKPREEQYNSTYRVVSVLTVLHQDWLNGKEYKCKVSNKALPAPIEKTISKAKGQPREPQVCTLPPSRDELTKNQVSLSCAVKGFYPSDIAVEWESNGQPENNYKTTPPVLDSDGSFFLVSKLTVDKSRWQQGNVFSCSVMHEALKYHYTQKSLSLSPGGGGGSGGGGSGGGGSEVQLLESGGGLVQPGGSLRLSCAASGFTFRSFGMSWVRQAPGKGPEWVSSISGSGSDTLYADSVKGRFTISRDNSKNTLYLQMNSLRPEDTAVYYCTIGGSLSRSSQGTLVTVSS
chain 2: DKTHTCPPCPAPELLGGPSVFLFPPKPKDTLYITREPEVTCVVVDVSHEDPEVKFNWYVDGVEVHNAKTKPREEQYNSTYRVVSVLTVLHQDWLNGKEYKCKVSNKALPAPIEKTISKAKGQPREPQVYTLPPCRDELTKNQVSLWCLVKGFYPSDIAVEWESNGQPENNYKTTPPVLDSDGSFFLYSKLTVDKSRWQQGNVFSCSVMHEALKYHYTQKSLSLSPG

IC50 [1]: 2.85 nM
Kd (cynomolgus monkey FcRn [2]): 39.7 nM
Kd [3]: 8.8 nM
Kd (mouse FcRn [4]): 0.269 nM
Kd (rat FcRn [5]): 3.71 nM
Kd (cynomolgus monkey FcRn [6]): 1370 nM
Kd [7]: 239 nM
Kd (mouse FcRn [8]): 2.8 nM
Kd (rat FcRn [9]): 12.3 nM
IC50 [10]: 4.82 nM
B2: Fc Fragment 1 (other)
chain: B1 chain 2 with C134S, W146T, Y214F
notes: Human IgG1 Fc fragment (EU 221-446) with the named substitutions already in the entry; also called Efgartigimod (Efgart); Efgartigimod without the C-terminal lysine

Average (n = 3) Residual FcRn (FcRn-GFP): 31
B3: Fc Fusion Molecule 41 (Fc fusion)
chain 1: DKTHTCPPCPAPELLGGPSVFLFPPKPKDTLYITREPEVTCVVVDVSHEDPEVKFNWYVDGVEVHNAKTKPREEQYNSTYRVVSVLTVLHQDWLNGKEYKCKVSNKALPAPIEKTISKAKGQPREPQVCTLPPSRDELTKNQVSLSCAVKGFYPSDIAVEWESNGQPENNYKTTPPVLDSDGSFFLVSKLTVDKSRWQQGNVFSCSVMHEALKYHYTQKSLSLSPGGGGGSGGGGSGGGGSGGGGSGGGGSGGGGSEVQLLESGGGLVQPGGSLRLSCAASGFTFRSFGMSWVRQAPGKGPEWVSSISGSGSDTLYADSVKGRFTISRDNSKNTLYLQMNSLRPEDTAVYYCTIGGSLSRSSQGTLVTVSS
chain 2: B1 chain 2

Average (n = 3) Residual FcRn (FcRn-GFP): 48
B4: Fc Fusion Molecule 42 (Fc fusion)
chain 1: DKTHTCPPCPAPELLGGPSVFLFPPKPKDTLYITREPEVTCVVVDVSHEDPEVKFNWYVDGVEVHNAKTKPREEQYNSTYRVVSVLTVLHQDWLNGKEYKCKVSNKALPAPIEKTISKAKGQPREPQVCTLPPSRDELTKNQVSLSCAVKGFYPSDIAVEWESNGQPENNYKTTPPVLDSDGSFFLVSKLTVDKSRWQQGNVFSCSVMHEALKYHYTQKSLSLSPGGGGGSGGGGSGGGGSGGGGSGGGGSGGGGSGGGGSGGGGSEVQLLESGGGLVQPGGSLRLSCAASGFTFRSFGMSWVRQAPGKGPEWVSSISGSGSDTLYADSVKGRFTISRDNSKNTLYLQMNSLRPEDTAVYYCTIGGSLSRSSQGTLVTVSS
chain 2: B1 chain 2

Average (n = 3) Residual FcRn (FcRn-GFP): 12
B5: Fc Fusion Molecule 43 (Fc fusion)
chain 1: B1 chain 1 with F273A
chain 2: B1 chain 2

IC50 [1]: 1.41 nM
Kd (cynomolgus monkey FcRn [2]): 30.1 nM
Kd [3]: 7.15 nM
Kd (mouse FcRn [4]): 0.194 nM
Kd (rat FcRn [5]): 5.41 nM
Kd (cynomolgus monkey FcRn [6]): 900 nM
Kd [7]: 166 nM
Kd (mouse FcRn [8]): 2.83 nM
Kd (rat FcRn [9]): 17.3 nM
IC50 [10]: 3.73 nM
B6: Fc Fragment 12 (other)
chain: B1 chain 2 with C134S, W146T, K213R
notes: Human IgG1 Fc fragment; substitutions already in the entry

IC50 [1]: 1.13 nM
Kd (cynomolgus monkey FcRn [2]): 41.7 nM
Kd [3]: 9.53 nM
Kd (mouse FcRn [4]): 0.2 nM
Kd (rat FcRn [5]): 4.33 nM
Kd (cynomolgus monkey FcRn [6]): 1370 nM
Kd [7]: 248 nM
Kd (mouse FcRn [8]): 2.73 nM
Kd (rat FcRn [9]): 16.2 nM
IC50 [10]: 4.71 nM
B7: Fc Fragment 13 (other)
chain: B1 chain 2 with C134S, W146T, K213R, Y214F
notes: as for B6

IC50 [1]: 5.18 nM
Kd (cynomolgus monkey FcRn [2]): 372 nM
Kd [3]: 51.7 nM
Kd (cynomolgus monkey FcRn [6]): 1550 nM
Kd [7]: 290 nM
B8: Fc Fragment 20 (other)
chain: B1 chain 2 with L89D, Q91K, C134S, W146T
notes: as for B6

IC50 [1]: 2.09 nM
Kd (cynomolgus monkey FcRn [2]): 36.1 nM
Kd [3]: 8.26 nM
Kd (mouse FcRn [4]): 0.288 nM
Kd (rat FcRn [5]): 3.94 nM
Kd (cynomolgus monkey FcRn [6]): 1600 nM
Kd [7]: 249 nM
Kd (mouse FcRn [8]): 2.34 nM
Kd (rat FcRn [9]): 12.4 nM
IC50 [10]: 3.85 nM
B9: Fc Fragment 14 (other)
chain: B1 chain 2 with C134S, W146T, M208L, K213R, Y214F
notes: as for B6

IC50 [1]: 1.51 nM
Kd (cynomolgus monkey FcRn [2]): 38.6 nM
Kd [3]: 8.41 nM
Kd (mouse FcRn [4]): 0.248 nM
Kd (rat FcRn [5]): 2.9 nM
Kd (cynomolgus monkey FcRn [6]): 1700 nM
Kd [7]: 269 nM
Kd (mouse FcRn [8]): 4.05 nM
Kd (rat FcRn [9]): 14.7 nM
IC50 [10]: 6.47 nM
B10: Fc Fragment 11 (other)
chain: B1 chain 2 with C134S, W146T, M208L, K213H, Y214F
notes: as for B6

IC50 [1]: 0.77 nM
Kd (cynomolgus monkey FcRn [2]): 28.9 nM
Kd [3]: 6.74 nM
Kd (mouse FcRn [4]): 0.172 nM
Kd (rat FcRn [5]): 4.25 nM
Kd (cynomolgus monkey FcRn [6]): 948 nM
Kd [7]: 210 nM
Kd (mouse FcRn [8]): 2.38 nM
Kd (rat FcRn [9]): 14.9 nM
IC50 [10]: 4.59 nM
B11: Fc Fragment 3 (other)
chain: B1 chain 2 with C134S, W146T
notes: Human IgG1 Fc fragment; substitutions already in the entry; also called Fc197

IC50 [1]: 8.45 nM
Kd (cynomolgus monkey FcRn [2]): 47.2 nM
Kd (cynomolgus monkey FcRn [6]): 1680 nM
Kd [7]: 371 nM
B12: Fc Fragment 16 (other)
chain: B1 chain 2 with L89D, C134S, W146T
notes: as for B6

IC50 [1]: 1.31 nM
Kd (cynomolgus monkey FcRn [2]): 36.2 nM
Kd [3]: 8.05 nM
Kd (mouse FcRn [4]): 0.182 nM
Kd (rat FcRn [5]): 3.5 nM
Kd (cynomolgus monkey FcRn [6]): 1540 nM
Kd [7]: 259 nM
Kd (mouse FcRn [8]): 2.55 nM
Kd (rat FcRn [9]): 11.8 nM
IC50 [10]: 4.09 nM
B13: Fc Fragment 2 (other)
chain: B1 chain 2 with C134S, W146T, M208L, Y214F
notes: Human IgG1 Fc fragment; substitutions already in the entry; also called Fc195

IC50 [1]: 30.3 nM
Kd (cynomolgus monkey FcRn [2]): 60.8 nM
Kd [3]: 76.4 nM
Kd (cynomolgus monkey FcRn [6]): 1430 nM
Kd [7]: 291 nM
B14: Fc Fragment 15 (other)
chain: B1 chain 2 with L89D, C134S, W146T, Y214F
notes: as for B6

Kd (cynomolgus monkey FcRn [2]): 28.6 nM
Kd [3]: 6.62 nM
Kd (mouse FcRn [4]): 0.143 nM
Kd (rat FcRn [5]): 3.49 nM
Kd (cynomolgus monkey FcRn [6]): 725 nM
Kd [7]: 169 nM
Kd (mouse FcRn [8]): 1.53 nM
Kd (rat FcRn [9]): 11.5 nM
IC50 [10]: 5.03 nM
B15: Fc Fragment 10 (other)
chain: B1 chain 2 with C134S, W146T, M208L
notes: as for B6

IC50 [1]: 6.91 nM
Kd (cynomolgus monkey FcRn [2]): 51.2 nM
Kd [3]: 58.7 nM
Kd (cynomolgus monkey FcRn [6]): 2110 nM
Kd [7]: 262 nM
B16: Fc Fragment 18 (other)
chain: B1 chain 2 with L89D, C134S, W146T, M208L
notes: as for B6

IC50 [1]: 7.98 nM
Kd (cynomolgus monkey FcRn [2]): 1250 nM
Kd [3]: 80.4 nM
Kd (cynomolgus monkey FcRn [6]): 1430 nM
Kd [7]: 252 nM
B17: Fc Fragment 19 (other)
chain: B1 chain 2 with L89D, Q91K, C134S, W146T, Y214F
notes: as for B6

IC50 [1]: 10.2 nM
Kd (cynomolgus monkey FcRn [2]): 62.1 nM
Kd [3]: 68.3 nM
Kd (cynomolgus monkey FcRn [6]): 2190 nM
Kd [7]: 293 nM
B18: Fc Fragment 17 (other)
chain: B1 chain 2 with L89D, C134S, W146T, M208L, Y214F
notes: as for B6
